Blank lines part the entries; values can stand above or below the molecule they belong to.
Tests used:
[1] = molecular target: deglycosylated 92TH023 V1/V2 tag scaffold (HIV-1 92TH023 (subtype A/E)); assay: static cell adhesion assay
[2] = molecular target: synthetic cyclic 42 amino acid V2 peptide of 92TH023 gp120 (HIV-1 92TH023 (subtype A/E)); assay: static cell adhesion assay; RPMI8866 cells on immobilised MAdCAM or cV2 92TH023 in buffer with a high concentration of MgCl2
[3] = molecular target: recombinant A244 gp120 (subtype A/E, GSID) (HIV-1 A244 (subtype A/E)); assay: SPR
[4] = molecular target: recombinant SIVmac766 gp120 (SIVmac766); assay: SPR
[5] = molecular target: synthetic cyclic 42 amino acid V2 peptide of 92TH023 gp120 (HIV-1 92TH023 (subtype A/E)); assay: SPR
[6] = molecular target: T1, recombinant soluble α4β7 heterodimer (human, UniProt P13612 35-977; P26010 20-723, disulfide bond joining the acid-base clasp | disulfide bond joining the acid-base clasp); assay: SPR; settings: both partners purified
T1 construct: also called integrin α4β7; not shown: acid coiled-coil clasp peptide, C-terminal, kept; base coiled-coil clasp peptide, C-terminal, kept

Molecule: integrin α4β7 expressed on the surface of RPMI8866 cells (from UniProt P13612 34-1032; P26010 20-798) (receptor)
- fold adhesion against deglycosylated 92TH023 V1/V2 1FD6 [1]: 5 fold
- fold reduction of adhesion in MgCl2 against MnCl2 [2]: 2.5 fold

Molecule: recombinant soluble α4β7 heterodimer (from UniProt P13612 35-977; P26010 20-723) (complex)
- Kd [3]: 7.14 nM
- Kd [4]: 104 nM
- Kd [5]: 1.15 nM

Molecule: soluble α4β1 (from UniProt P13612 35-977; P05556 21-728) (complex)
- Kd [5]: 9710 nM

- Kd [6]: 0.597 nM
B1: MAdCAM-Ig fusion protein (Fc fusion, human, UniProt Q13477 19-317, looked up)
chain: QSLQVKPLQVEPPEPVVAVALGASRQLTCRLACADRGASVQWRGLDTSLGAVQSDTGRSVLTVRNASLSAAGTRVCVGSCGGRTFQHTVQLLVYAFPDQLTVSPAALVPGDPEVACTAHKVTPVDPNALSFSLLVGGQELEGAQALGPEVQEEEEEPQGDEDVLFRVTERWRLPPLGTPVPPALYCQATMRLPGLELSHRQAIPVLHSPTSPEPPDTTSPESPDTTSPESPDTTSQEPPDTTSPEPPDKTSPEPAPQQGSTHTPRSPGSTRTRRPEISQAGPTQGEVIPTGSSKPAGDQ
notes: also called Hu-MAdCAM-Ig; MAdCAM-1

From PMC6130882 (PLoS Pathogens, 2018)
